Reference: patent US20240010724A1 (Amgen, published 2024)
Where a chain is given by its changes, count along the chain named.

Key:
Test in all cases: flow cytometry, transfected 293T cells
[1] = biological target: T1, muCDH19(44-247)::huCDH19(250-364)::muCDH19(363-770) (human/mouse chimera)
T1 construct: also called Hu EC3

[2] = biological target: T2, muCDH19(44-139)::huCDH19(142-364)::muCDH19(363-770) (human/mouse chimera)
T2 construct: also called Hu EC2-3

[3] = biological target: T3, huCDH19(44-249)::muCDH19(248-770) (human/mouse chimera)
T3 construct: also called Hu EC1-2

[4] = biological target: T4, huCDH19(44-141)::muCDH19(140-770) (human/mouse chimera)
T4 construct: also called Hu EC1

[5] = biological target: T5, muCDH19(44-461)::huCDH19(464-772) (human/mouse chimera)
T5 construct: also called Hu EC5
T5 chain: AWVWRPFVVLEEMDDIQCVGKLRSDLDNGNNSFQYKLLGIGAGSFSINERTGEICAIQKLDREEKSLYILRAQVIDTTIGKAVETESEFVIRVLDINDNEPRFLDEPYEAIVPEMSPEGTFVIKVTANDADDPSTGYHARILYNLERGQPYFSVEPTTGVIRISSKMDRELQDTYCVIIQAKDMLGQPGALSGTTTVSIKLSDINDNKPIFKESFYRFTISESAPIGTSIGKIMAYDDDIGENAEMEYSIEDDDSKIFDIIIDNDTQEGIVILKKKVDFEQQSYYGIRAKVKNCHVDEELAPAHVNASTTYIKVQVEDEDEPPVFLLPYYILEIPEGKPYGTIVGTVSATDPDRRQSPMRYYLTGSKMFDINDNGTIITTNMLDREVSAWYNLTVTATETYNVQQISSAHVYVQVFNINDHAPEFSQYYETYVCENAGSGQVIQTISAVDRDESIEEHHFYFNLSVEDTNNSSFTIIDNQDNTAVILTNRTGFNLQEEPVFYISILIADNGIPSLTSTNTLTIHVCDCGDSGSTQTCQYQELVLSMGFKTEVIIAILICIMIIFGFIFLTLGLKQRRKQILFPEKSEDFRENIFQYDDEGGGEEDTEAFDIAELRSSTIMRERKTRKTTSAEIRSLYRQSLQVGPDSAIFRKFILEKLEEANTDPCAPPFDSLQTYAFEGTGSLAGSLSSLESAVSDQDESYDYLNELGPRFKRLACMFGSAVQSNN

[6] = biological target: T6, muCDH19(44-362)::huCDH19(365-772) (human/mouse chimera)
T6 construct: also called Hu EC4-5
T6 chain: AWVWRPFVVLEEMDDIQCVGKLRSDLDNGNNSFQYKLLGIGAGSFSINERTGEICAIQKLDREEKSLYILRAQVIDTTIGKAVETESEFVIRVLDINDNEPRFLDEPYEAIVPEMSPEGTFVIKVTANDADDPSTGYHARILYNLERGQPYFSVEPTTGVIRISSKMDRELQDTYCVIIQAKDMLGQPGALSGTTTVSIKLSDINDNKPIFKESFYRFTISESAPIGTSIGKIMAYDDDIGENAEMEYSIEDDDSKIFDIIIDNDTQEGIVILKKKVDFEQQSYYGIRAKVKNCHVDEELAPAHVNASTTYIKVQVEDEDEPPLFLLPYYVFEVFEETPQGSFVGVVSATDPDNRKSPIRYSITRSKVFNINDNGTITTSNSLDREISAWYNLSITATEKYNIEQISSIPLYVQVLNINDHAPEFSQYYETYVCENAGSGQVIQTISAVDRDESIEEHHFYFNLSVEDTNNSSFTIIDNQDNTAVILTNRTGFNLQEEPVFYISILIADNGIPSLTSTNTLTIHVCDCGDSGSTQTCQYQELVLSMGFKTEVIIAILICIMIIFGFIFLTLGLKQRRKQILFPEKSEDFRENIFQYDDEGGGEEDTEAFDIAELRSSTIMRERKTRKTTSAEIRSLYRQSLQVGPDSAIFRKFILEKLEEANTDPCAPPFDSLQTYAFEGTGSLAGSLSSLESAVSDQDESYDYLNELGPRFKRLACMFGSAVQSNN

[7] = biological target: T7, muCDH19(44-139)::huCDH19(142-249):muCDH19(248-770) (human/mouse chimera)
T7 construct: also called Hu EC2
T7 chain: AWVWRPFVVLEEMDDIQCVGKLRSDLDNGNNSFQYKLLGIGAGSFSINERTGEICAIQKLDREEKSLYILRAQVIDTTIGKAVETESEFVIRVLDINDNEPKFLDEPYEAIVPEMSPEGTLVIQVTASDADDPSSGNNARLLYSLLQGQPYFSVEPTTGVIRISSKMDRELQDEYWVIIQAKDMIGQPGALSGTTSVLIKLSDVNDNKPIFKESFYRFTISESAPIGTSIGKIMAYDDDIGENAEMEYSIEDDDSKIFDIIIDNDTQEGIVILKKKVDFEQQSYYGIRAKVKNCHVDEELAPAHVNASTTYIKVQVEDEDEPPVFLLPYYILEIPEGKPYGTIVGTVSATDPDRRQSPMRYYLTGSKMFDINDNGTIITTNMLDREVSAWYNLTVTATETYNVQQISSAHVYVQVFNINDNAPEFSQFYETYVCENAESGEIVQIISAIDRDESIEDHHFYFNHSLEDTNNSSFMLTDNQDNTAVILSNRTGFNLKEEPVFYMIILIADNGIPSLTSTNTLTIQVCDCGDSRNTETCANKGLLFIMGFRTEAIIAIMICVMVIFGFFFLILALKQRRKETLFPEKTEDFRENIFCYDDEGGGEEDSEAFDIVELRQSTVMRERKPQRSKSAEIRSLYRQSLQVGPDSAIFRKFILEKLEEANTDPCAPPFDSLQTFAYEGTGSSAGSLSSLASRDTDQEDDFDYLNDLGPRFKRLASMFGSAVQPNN

[8] = biological target: T8, huCDH19(44-772) (human, UniProt Q9H159 44-772)
T8 construct: also called Hu EC1-5

[9] = biological target: T9, muCDH19(44-770) (mouse)
T9 construct: also called Mu EC1-5
T9 chain: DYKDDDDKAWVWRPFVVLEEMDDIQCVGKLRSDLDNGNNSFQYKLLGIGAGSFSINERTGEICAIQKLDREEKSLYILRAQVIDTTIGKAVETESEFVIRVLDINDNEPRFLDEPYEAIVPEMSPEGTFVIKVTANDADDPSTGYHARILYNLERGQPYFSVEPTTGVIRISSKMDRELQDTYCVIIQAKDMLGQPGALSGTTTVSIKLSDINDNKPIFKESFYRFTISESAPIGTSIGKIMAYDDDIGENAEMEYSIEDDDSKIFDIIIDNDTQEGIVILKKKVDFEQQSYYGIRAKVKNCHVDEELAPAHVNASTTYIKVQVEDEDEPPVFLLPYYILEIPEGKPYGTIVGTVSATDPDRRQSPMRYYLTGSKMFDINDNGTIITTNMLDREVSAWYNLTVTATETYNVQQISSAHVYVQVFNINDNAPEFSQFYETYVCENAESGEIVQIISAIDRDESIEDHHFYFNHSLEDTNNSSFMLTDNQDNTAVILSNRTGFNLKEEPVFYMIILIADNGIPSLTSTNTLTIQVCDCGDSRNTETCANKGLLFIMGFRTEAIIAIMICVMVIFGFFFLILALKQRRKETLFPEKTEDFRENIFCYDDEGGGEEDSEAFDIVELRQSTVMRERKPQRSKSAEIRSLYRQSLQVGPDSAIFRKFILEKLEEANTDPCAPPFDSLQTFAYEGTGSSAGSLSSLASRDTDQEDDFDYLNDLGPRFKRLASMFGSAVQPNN

Measured: binding result

B1: anti-CDH19 antibody 13590 (clone 4B10) (antibody, V domains shown)
VH: QVQLVESGGGVVQPGRSLRLSCAASGFTFSSYDMHWVRQAPGKGLEWVAVISYDGTNEYYADSVKGRFTISRDTSKNTLYLQMNSLRAEDTAVYYCARERYFDWSFDYWGQGTLVSVSS
VL: EIVLTQSPGTLSLSPGERATLSCRASQSVSNTYLAWYHQRPGQAPRLLIYGASSRATGIPDRFSGSGSGTDFALTISSLEPEDFAVYYCQQYSNSWTFGQGTKVEIKR
notes: fully human XenoMouse monoclonal antibody; bin 4
binds: [1] | [2]

B2: anti-CDH19 antibody 13880 (clone 25F8) (antibody, human IgG1, lambda, V domains shown)
VH: QVQLVQSGAEVKKPGASVKVSCKASGYTFTSYYIHWVRQAPGQGLEWMGIINPSGGSTRYAQKFQGRVTMTRDTSTSTVFMELSSLRSEDTAVYYCARGGIQLWLHFDYWGQGTLVTVSS
VL: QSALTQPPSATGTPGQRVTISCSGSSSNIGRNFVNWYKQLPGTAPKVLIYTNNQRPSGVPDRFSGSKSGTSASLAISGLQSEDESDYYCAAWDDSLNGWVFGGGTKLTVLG
notes: fully human XenoMouse monoclonal antibody; bin 2
binds: [3] | [4]

B3: anti-CDH19 antibody 13882 (clone 26D1) (antibody, human IgG1, lambda, V domains shown)
VH: B2 VH with G26R, I34M, H35S, N52H, S57D, R59T, R72G, F80Y, Q102K
VL: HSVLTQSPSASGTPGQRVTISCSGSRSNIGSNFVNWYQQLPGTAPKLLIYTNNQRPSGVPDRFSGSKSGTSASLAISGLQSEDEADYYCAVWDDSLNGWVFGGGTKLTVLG
notes: as for B2
binds: [3] | [4]

B4: anti-CDH19 antibody 14039 (antibody, human IgG1, lambda, V domains shown)
VH: QVQLVESGGGVVQPGGSLRLSCAASGFTFSSYGMHWVRQAPGKGLEWVAFIWYEGSNKYYAESVKDRFTISRDNSKNTLYLQMNSLRAEDTAVYYCARRAGIIGTIGYYYGMDVWGQGTTVTVSS
VL: SYELTQPPSVSVSPGQTASITCSGDRLGEKYTSWYQQRPGQSPLLVIYQDTKRPSGIPERFSGSNSGNTATLTISGTQAMDEADYYCQAWESSTVVFGGGTKLTVLG
not listed: [8] | [9]
binds: all other assays above

B5: anti-CDH19 antibody 14304 (antibody, V domains shown)
VH: B4 VH with E54D, E62D, N84K
VL: B4 VL with T32V, R38K, L44I, T51N, R53W, E91D
binds: all assays above

B6: anti-CDH19 antibody 13589 (clone 4A9) (antibody, human IgG1, lambda, V domains shown)
VH: QVQLQESGPGLVKPSETLSLTCTVSGGSISGYYWSWIRQPPGKGLEWFAYFSYSGSTNYNPSLKSRVTLSVDTSKNQFSLKLSSVTAADTAVYYCARNWAFHFDFWGQGTLVTVSS
VL: QSVLTQPPSVSGAPGQRVTISCTGSSSNIGTGYAVHWYQQFPGTAPKLLIYGNNNRPSGVPDRFSGSKSGTSASLAITGLQAEDEADYYCQSYDSRLSGWVFGGGTKLTVLG
notes: fully human XenoMouse monoclonal antibody; bin 1; also called Alexa647-labelled 4A9
binds: [3] | [4]
